This note sets out measurements from patent US10760112B2, “Enzymatic activity assays for glucocerebrosidase” (Shire Human Genetic Therapies, Inc., priority 2014, dated 2020).

Data set [1] can be described thus: Velaglucerase activity at varying levels of sodium taurocholate. Particulars: range tested 2 mM to 25 mM sodium taurocholate. The class given is biochemical. As to the method:
Assays of velaglucerase activity were carried out in the presence of varying levels of sodium taurocholate or oleic acid. Sodium taurocholate is an anionic detergent that has been, in some cases, used to facilitate lipid-based substrate solubility in aqueous environments. The effect of sodium taurocholate was examined over a concentration range of 2 mM to 25 mM (FIG. 6).

The nature of data set [2]: Enzyme kinetics assay with C18:1 glucosylceramide substrate, glucose detected by HPAEC-PAD. The class given is biochemical. As to the method:
Sonication was used to achieve a consistent substrate preparation. A sonicator was pre-set to 60% AMPL and 5 minutes. A 4 oz. amber bottle of substrate dilution buffer (4 mM taurocholic acid, 0.2% v/v oleic acid in citrate/phosphate buffer pH 5.0) was placed in the noise isolation chamber and the sonicator probe was immersed into the solution. The substrate dilution buffer was sonicated at 60% AMPL for 5 minutes. Following sonication, the noise isolation chamber was opened. A second cycle of sonication at 60% AMPL for 5 minutes was initiated while the amber bottle was gently swirled. After 5 minutes, the substrate dilution buffer was cloudy. Approximately 15-20 mg of C18:1 glucosylceramide was weighed in a clean 2 oz. amber bottle. Sonicated substrate dilution buffer was added to bring the concentration of C18:1 glucosylceramide to 0.64 mg/mL (approximately 880 μM). Next, the same sonication steps were repeated for the 2 oz. amber bottle of 880 μM C18:1 glucosylceramide, with the additional consideration that, prior to the step of gently swirling the bottle while sonicating, it was ensured that all substrate particles were in the biphasic mixture. Sonication and swirling were continued until there were no visible particles in the mixture.
After the sonication procedure, two stocks were prepared for use in the assay. A first reagent reservoir filled with sonicated substrate dilution buffer. A second reagent reservoir was filled with 6 mL sonicated substrate dilution buffer and 2 mL of the 880 μM C18:1 glucosylceramide (final substrate concentration of 220 μM C18:1 glucosylceramide).
A dilution series of substrate was prepared in a 96-well plate having columns 1-12, rows A-H, and a well volume of 0.5 mL. Each well of rows A-G was filled with 170 μL substrate dilution buffer. In addition, 200 μL substrate solution of different concentrations were transferred to the appropriate wells of rows A to G according to Table 2. Substrate dilution buffer and substrate solution were mixed by pipetting.
Frozen experimental and assay control samples were thawed in a 37° C. water bath for <5 min. In the present examples, the sample is a sample of enzyme. After thawing, each tube was placed on ice. Dilutions of the samples were then prepared at room temperature. To prepare the sample dilutions, sample dilution buffer (50 mM citrate buffer pH 6.0, 0.75 mg/ml BSA) was placed on ice in centrifuge tubes, each tube containing 990 μL sonicated sample dilution buffer. Tubes of sample dilution buffer were briefly vortexed (1-3 seconds) and pulse centrifuged to collect the liquid to the bottom of the tube. A 10 μL aliquot of each sample was transferred into a dedicated tube of sample dilution buffer to prepare a 1:100 dilution. Samples were diluted in triplicate. Samples were briefly vortexed to ensure proper mixing. Next, a 10 μL aliquot of each of 1:100 diluted sample was transferred to a dedicated second tube having been preloaded with 990 μL sample dilution buffer, resulting in a 1:10,000 dilution. Samples were briefly vortexed to ensure proper mixing. Next, the 1:10,000 dilution was used to prepare a 1 mL dilution having a final concentration of 0.02 ng/μL. In particular, the volume of the 1:10,000 dilution needed to dilute the enzyme to 0.02 ng/μL in 1 mL was determined and transferred from the second tube into the a third dedicated tube preloaded with an amount of sample dilution buffer calculated to result in a total volume of 1 mL at 0.02 ng/μL. Accordingly, when 10 μL of 0.02 ng/μL enzyme is mixed with 100 μL of substrate solution, the final concentration of enzyme is 0.0290 nM, assuming a monomer with a relative molecular mass of 62.8 kDa. Samples were briefly vortexed to ensure proper mixing. Final dilution tubes were placed on ice.
Briefly, velaglucerase alfa was incubated with C18:1 glucosylceramide at eight concentrations of substrate (2.70-200 μM) and in 110 μL reactions for 20 min at 37° C. with appropriate standards and/or controls. […]

Where [3] appears, read: Photo Stress (forced degradation, oxidation by light exposure).

B1: velaglucerase: recombinant form of glucocerebrosidase approved as long-term enzyme replacement therapy for Gaucher disease (SEQ ID NO: 1) (protein)
chain: ARPCIPKSFGYSSVVCVCNATYCDSFDPPTFPALGTFSRYESTRSGRRMELSMGPIQANHTGTGLLLTLQPEQKFQKVKGFGGAMTDAAALNILALSPPAQNLLLKSYFSEEGIGYNIIRVPMASCDFSIRTYTYADTPDDFQLHNFSLPEEDTKLKIPLIHRALQLAQRPVSLLASPWTSPTWLKTNGAVNGKGSLKGQPGDIYHQTWARYFVKFLDAYAEHKLQFWAVTAENEPSAGLLSGYPFQCLGFTPEHQRDFIARDLGPTLANSTHHNVRLLMLDDQRLLLPHWAKVVLTDPEAAKYVHGIAVHWYLDFLAPAKATLGETHRLFPNTMLFASEACVGSKFWEQSVRLGSWDRGMQYSHSIITNLLYHVVGWTDWNLALNPEGGPNWVRNFVDS
As for B1, in data set [1], the “optimal concentration of sodium taurocholate” value is recorded as 6.5 mM and the “sodium taurocholate concentration above which activity gradually declined” value is listed as “above 8 mM”. In data set [2] (Baseline (unstressed control)), the Km came out at 4.9 µM and the turnover number (kcat) is 90.7 s⁻¹. For the same molecule, in data set [2] (setting [3]), the Km turned out to be 6.7 µM and the kcat was determined as 76.8 s⁻¹. Also, the “change in kcat, stressed sample vs baseline” value in data set [2] (photo stress vs unstressed control) is “clear decrease”. For the same molecule, the “change in Km, stressed sample vs baseline” value in data set [2] (photo stress vs unstressed control, not considered significant) is on record as “minor increase”.

By Km is commonly meant the concentration of substrate that gives half-maximal velocity. By kcat is commonly meant the number of substrate molecules converted per active site and unit of time at saturation.
